Experimental data published in PMC9482650, “Quantitative fragmentomics allow affinity mapping of interactomes” (Nature Communications, 2022).

T1: APBA1_1, Q02410
T1 sequence (Q02410 651-752, limits assumed, looked up): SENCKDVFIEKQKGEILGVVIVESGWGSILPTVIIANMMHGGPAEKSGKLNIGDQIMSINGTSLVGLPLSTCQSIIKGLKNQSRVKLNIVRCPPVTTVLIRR

T2: APBA2_2, Q99767
T2 sequence (Q99767 654-744, limits assumed, looked up): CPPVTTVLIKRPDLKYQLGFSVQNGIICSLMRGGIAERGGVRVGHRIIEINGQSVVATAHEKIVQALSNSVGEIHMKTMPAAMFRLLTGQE

T3: ARHGEF11, O15085
T3 sequence (O15085 42-136, limits assumed, looked up): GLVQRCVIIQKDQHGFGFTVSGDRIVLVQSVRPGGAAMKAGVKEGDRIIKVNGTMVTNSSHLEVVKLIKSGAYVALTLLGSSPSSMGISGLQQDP

T4: DLG3_2, Q92796
T4 sequence (Q92796 221-321, limits assumed, looked up): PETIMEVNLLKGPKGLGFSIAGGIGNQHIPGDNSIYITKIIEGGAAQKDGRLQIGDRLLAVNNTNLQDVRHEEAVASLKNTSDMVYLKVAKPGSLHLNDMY

T5: DLG3_3, Q92796
T5 sequence (Q92796 374-475, limits assumed, looked up): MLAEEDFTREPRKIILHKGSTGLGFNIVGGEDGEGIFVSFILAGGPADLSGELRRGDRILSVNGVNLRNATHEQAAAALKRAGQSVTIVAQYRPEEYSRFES

T6: GRIP1_2, Q9Y3R0
T6 sequence (Q9Y3R0 145-248, limits assumed, looked up): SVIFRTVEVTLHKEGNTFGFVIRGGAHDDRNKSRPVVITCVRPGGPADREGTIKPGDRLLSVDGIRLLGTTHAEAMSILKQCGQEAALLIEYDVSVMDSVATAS

T7: GRIP1_3, Q9Y3R0
T7 sequence (Q9Y3R0 247-346, limits assumed, looked up): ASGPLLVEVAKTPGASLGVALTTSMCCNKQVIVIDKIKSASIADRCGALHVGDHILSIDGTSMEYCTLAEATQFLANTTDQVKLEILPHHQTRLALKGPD

T8: HTRA3, P83110
T8 sequence (P83110 354-453, limits assumed, looked up): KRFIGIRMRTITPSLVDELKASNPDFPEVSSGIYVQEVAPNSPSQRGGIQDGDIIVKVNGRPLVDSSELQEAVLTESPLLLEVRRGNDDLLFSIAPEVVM

T9: MPDZ_12, O75970
T9 sequence (O75970 1857-1958, limits assumed, looked up): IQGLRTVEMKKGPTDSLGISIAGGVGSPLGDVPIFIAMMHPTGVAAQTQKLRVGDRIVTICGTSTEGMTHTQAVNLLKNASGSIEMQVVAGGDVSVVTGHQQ

T10: MPP6, Q9NZW5
T10 sequence (Q9NZW5 125-219, limits assumed, looked up): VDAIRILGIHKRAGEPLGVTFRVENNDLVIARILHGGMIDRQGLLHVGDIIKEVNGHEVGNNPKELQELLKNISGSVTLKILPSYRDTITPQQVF

T11: PARD3B_1, Q8TEW8
T11 sequence (Q8TEW8 196-299, limits assumed, looked up): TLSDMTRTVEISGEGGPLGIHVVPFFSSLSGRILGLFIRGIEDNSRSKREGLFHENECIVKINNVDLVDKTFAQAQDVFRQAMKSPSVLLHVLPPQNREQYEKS

T12: SHANK1, Q9Y566
T12 sequence (Q9Y566 658-767, limits assumed, looked up): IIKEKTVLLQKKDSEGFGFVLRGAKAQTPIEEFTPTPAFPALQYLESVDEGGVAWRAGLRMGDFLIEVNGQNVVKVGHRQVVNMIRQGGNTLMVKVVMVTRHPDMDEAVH

B1: CLDN9, O95484 (peptide)
chain: ASGLDKRDYV
B2: GAB3, Q8WWW8 (peptide)
chain: EWTDERQSKV
B3: ADGRA2, Q96PE1 (peptide)
chain: TGLWKSETTV
B4: PLEKHG7, Q6ZR37 (peptide)
chain: FTLPAESSEI

target: T1, APBA1_1, Q02410; assay: holdup assay; design: key: below the threshold = too weak to quantify, mostly under pKd 3.1 to 4; conditions: plain residues with an end cap or a label only (N-terminal biotin on a linker: ado-ado)

| Binder | pKd |
| --- | --- |
| B1 | below the threshold |
| B2 | below the threshold |
| B3 | below the threshold |
| B4 | below the threshold |

target: T2, APBA2_2, Q99767; assay: holdup assay; design: key: below the threshold = too weak to quantify, mostly under pKd 3.1 to 4; conditions: plain residues with an end cap or a label only (N-terminal biotin on a linker: ado-ado)

| Binder | pKd |
| --- | --- |
| B1 | below the threshold |
| B2 | below the threshold |
| B3 | below the threshold |
| B4 | below the threshold |

target: T3, ARHGEF11, O15085; assay: holdup assay; design: key: below the threshold = too weak to quantify, mostly under pKd 3.1 to 4; conditions: plain residues with an end cap or a label only (N-terminal biotin on a linker: ado-ado)

| Binder | pKd |
| --- | --- |
| B1 | below the threshold |
| B2 | 3.75 |
| B3 | 4.13 |
| B4 | below the threshold |

target: DLG2_3, Q15700; assay: holdup assay; design: key: below the threshold = too weak to quantify, mostly under pKd 3.1 to 4; conditions: plain residues with an end cap or a label only (N-terminal biotin on a linker: ado-ado)

| Binder | pKd |
| --- | --- |
| B1 | below the threshold |
| B2 | below the threshold |
| B3 | 4.5 |
| B4 | 3.75 |

target: T4, DLG3_2, Q92796; assay: holdup assay; design: key: below the threshold = too weak to quantify, mostly under pKd 3.1 to 4; conditions: plain residues with an end cap or a label only (N-terminal biotin on a linker: ado-ado)

| Binder | pKd |
| --- | --- |
| B1 | below the threshold |
| B2 | below the threshold |
| B3 | 5.07 |
| B4 | 4.19 |

target: T5, DLG3_3, Q92796; assay: holdup assay; design: key: below the threshold = too weak to quantify, mostly under pKd 3.1 to 4; conditions: plain residues with an end cap or a label only (N-terminal biotin on a linker: ado-ado)

| Binder | pKd |
| --- | --- |
| B1 | below the threshold |
| B2 | 3.9 |
| B3 | 4.47 |
| B4 | below the threshold |

target: DLG5_1, Q8TDM6; assay: holdup assay; design: key: below the threshold = too weak to quantify, mostly under pKd 3.1 to 4; conditions: plain residues with an end cap or a label only (N-terminal biotin on a linker: ado-ado)
Sequence (Q8TDM6 617-713): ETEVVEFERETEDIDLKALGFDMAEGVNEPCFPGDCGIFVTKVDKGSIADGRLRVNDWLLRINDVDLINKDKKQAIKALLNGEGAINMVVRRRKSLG

| Binder | pKd |
| --- | --- |
| B1 | below the threshold |
| B2 | 3.66 |
| B3 | below the threshold |
| B4 | below the threshold |

target: GOPC, Q9HD26; assay: holdup assay; design: key: below the threshold = too weak to quantify, mostly under pKd 3.1 to 4; conditions: plain residues with an end cap or a label only (N-terminal biotin on a linker: ado-ado)

| Binder | pKd |
| --- | --- |
| B1 | below the threshold |
| B2 | 3.82 |
| B3 | 3.78 |
| B4 | below the threshold |

target: GRASP, Q7Z6J2; assay: holdup assay; design: key: below the threshold = too weak to quantify, mostly under pKd 3.1 to 4; conditions: plain residues with an end cap or a label only (N-terminal biotin on a linker: ado-ado)
Sequence (Q7Z6J2 96-193): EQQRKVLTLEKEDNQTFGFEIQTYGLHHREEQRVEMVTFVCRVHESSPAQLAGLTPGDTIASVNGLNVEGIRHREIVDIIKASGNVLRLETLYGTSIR

| Binder | pKd |
| --- | --- |
| B1 | below the threshold |
| B2 | 3.84 |
| B3 | 3.72 |
| B4 | 3.98 |

target: GRID2IP_2, A4D2P6; assay: holdup assay; design: key: below the threshold = too weak to quantify, mostly under pKd 3.1 to 4; conditions: plain residues with an end cap or a label only (N-terminal biotin on a linker: ado-ado)
Sequence (A4D2P6 272-370): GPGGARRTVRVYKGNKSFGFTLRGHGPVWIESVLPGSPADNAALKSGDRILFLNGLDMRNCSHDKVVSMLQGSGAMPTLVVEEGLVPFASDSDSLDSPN

| Binder | pKd |
| --- | --- |
| B1 | below the threshold |
| B2 | 4.07 |
| B3 | below the threshold |
| B4 | 4.2 |

target: T6, GRIP1_2, Q9Y3R0; assay: holdup assay; design: key: below the threshold = too weak to quantify, mostly under pKd 3.1 to 4; conditions: plain residues with an end cap or a label only (N-terminal biotin on a linker: ado-ado)

| Binder | pKd |
| --- | --- |
| B1 | below the threshold |
| B2 | below the threshold |
| B3 | below the threshold |
| B4 | below the threshold |

target: T7, GRIP1_3, Q9Y3R0; assay: holdup assay; design: key: below the threshold = too weak to quantify, mostly under pKd 3.1 to 4; conditions: plain residues with an end cap or a label only (N-terminal biotin on a linker: ado-ado)

| Binder | pKd |
| --- | --- |
| B1 | below the threshold |
| B2 | below the threshold |
| B3 | below the threshold |
| B4 | below the threshold |

target: GRIP2_4, Q9C0E4; assay: holdup assay; design: key: below the threshold = too weak to quantify, mostly under pKd 3.1 to 4; conditions: plain residues with an end cap or a label only (N-terminal biotin on a linker: ado-ado)
Sequence (Q9C0E4 446-548): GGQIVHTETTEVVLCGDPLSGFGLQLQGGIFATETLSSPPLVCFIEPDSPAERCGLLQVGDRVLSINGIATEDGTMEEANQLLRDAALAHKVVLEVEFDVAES

| Binder | pKd |
| --- | --- |
| B1 | below the threshold |
| B2 | below the threshold |
| B3 | below the threshold |
| B4 | below the threshold |

target: T8, HTRA3, P83110; assay: holdup assay; design: key: below the threshold = too weak to quantify, mostly under pKd 3.1 to 4; conditions: plain residues with an end cap or a label only (N-terminal biotin on a linker: ado-ado)

| Binder | pKd |
| --- | --- |
| B1 | 3.79 |
| B2 | below the threshold |
| B3 | below the threshold |
| B4 | below the threshold |

target: Inadl_1, Q8NI35; assay: holdup assay; design: key: below the threshold = too weak to quantify, mostly under pKd 3.1 to 4; conditions: plain residues with an end cap or a label only (N-terminal biotin on a linker: ado-ado)
Sequence (Q8NI35 113-229): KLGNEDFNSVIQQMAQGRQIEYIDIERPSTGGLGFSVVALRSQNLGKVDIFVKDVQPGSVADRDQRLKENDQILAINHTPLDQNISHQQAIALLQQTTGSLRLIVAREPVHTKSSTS

| Binder | pKd |
| --- | --- |
| B1 | below the threshold |
| B2 | below the threshold |
| B3 | below the threshold |
| B4 | below the threshold |

target: Inadl_2, Q8NI35; assay: holdup assay; design: key: below the threshold = too weak to quantify, mostly under pKd 3.1 to 4; conditions: plain residues with an end cap or a label only (N-terminal biotin on a linker: ado-ado)
Sequence (Q8NI35 238-335): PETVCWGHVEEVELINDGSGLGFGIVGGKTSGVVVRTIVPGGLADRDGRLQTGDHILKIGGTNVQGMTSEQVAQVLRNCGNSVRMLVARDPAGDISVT

| Binder | pKd |
| --- | --- |
| B1 | below the threshold |
| B2 | below the threshold |
| B3 | below the threshold |
| B4 | below the threshold |

target: LAP2, Q96RT1; assay: holdup assay; design: key: below the threshold = too weak to quantify, mostly under pKd 3.1 to 4; conditions: plain residues with an end cap or a label only (N-terminal biotin on a linker: ado-ado)
Sequence (Q96RT1 other isoform, or with tags, fused parts or gaps): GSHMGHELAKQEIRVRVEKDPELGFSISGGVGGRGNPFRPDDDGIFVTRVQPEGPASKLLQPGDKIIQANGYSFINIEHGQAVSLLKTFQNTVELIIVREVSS

| Binder | pKd |
| --- | --- |
| B1 | below the threshold |
| B2 | 3.56 |
| B3 | 3.7 |
| B4 | below the threshold |

target: MAGI1_2, Q96QZ7; assay: holdup assay; design: key: below the threshold = too weak to quantify, mostly under pKd 3.1 to 4; conditions: plain residues with an end cap or a label only (N-terminal biotin on a linker: ado-ado)
Sequence (Q96QZ7 456-580): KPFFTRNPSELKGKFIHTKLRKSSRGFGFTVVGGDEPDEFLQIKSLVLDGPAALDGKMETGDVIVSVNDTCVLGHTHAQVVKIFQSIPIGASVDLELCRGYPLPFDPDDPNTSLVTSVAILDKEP

| Binder | pKd |
| --- | --- |
| B1 | below the threshold |
| B2 | below the threshold |
| B3 | 4.92 |
| B4 | below the threshold |

target: T9, MPDZ_12, O75970; assay: holdup assay; design: key: below the threshold = too weak to quantify, mostly under pKd 3.1 to 4; conditions: plain residues with an end cap or a label only (N-terminal biotin on a linker: ado-ado)

| Binder | pKd |
| --- | --- |
| B1 | below the threshold |
| B2 | below the threshold |
| B3 | below the threshold |
| B4 | below the threshold |

target: T10, MPP6, Q9NZW5; assay: holdup assay; design: key: below the threshold = too weak to quantify, mostly under pKd 3.1 to 4; conditions: plain residues with an end cap or a label only (N-terminal biotin on a linker: ado-ado)

| Binder | pKd |
| --- | --- |
| B1 | 3.69 |
| B2 | below the threshold |
| B3 | 3.85 |
| B4 | below the threshold |

target: T11, PARD3B_1, Q8TEW8; assay: holdup assay; design: key: below the threshold = too weak to quantify, mostly under pKd 3.1 to 4; conditions: plain residues with an end cap or a label only (N-terminal biotin on a linker: ado-ado)

| Binder | pKd |
| --- | --- |
| B1 | below the threshold |
| B2 | below the threshold |
| B3 | below the threshold |
| B4 | below the threshold |

target: SCRIB_2, Q14160; assay: holdup assay; design: key: below the threshold = too weak to quantify, mostly under pKd 3.1 to 4; conditions: plain residues with an end cap or a label only (N-terminal biotin on a linker: ado-ado)
Sequence (Q14160 857-960): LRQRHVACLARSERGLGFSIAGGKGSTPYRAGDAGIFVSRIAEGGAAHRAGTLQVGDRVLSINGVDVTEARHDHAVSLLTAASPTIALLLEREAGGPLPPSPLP

| Binder | pKd |
| --- | --- |
| B1 | below the threshold |
| B2 | below the threshold |
| B3 | 4.31 |
| B4 | below the threshold |

target: T12, SHANK1, Q9Y566; assay: holdup assay; design: key: below the threshold = too weak to quantify, mostly under pKd 3.1 to 4; conditions: plain residues with an end cap or a label only (N-terminal biotin on a linker: ado-ado)

| Binder | pKd |
| --- | --- |
| B1 | below the threshold |
| B2 | 3.88 |
| B3 | below the threshold |
| B4 | 4.17 |

target: TJP1_2, Q07157; assay: holdup assay; design: key: below the threshold = too weak to quantify, mostly under pKd 3.1 to 4; conditions: plain residues with an end cap or a label only (N-terminal biotin on a linker: ado-ado)
Sequence (Q07157 181-274): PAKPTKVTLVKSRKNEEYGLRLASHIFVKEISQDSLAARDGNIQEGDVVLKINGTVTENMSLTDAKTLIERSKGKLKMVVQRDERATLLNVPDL

| Binder | pKd |
| --- | --- |
| B1 | below the threshold |
| B2 | below the threshold |
| B3 | 3.6 |
| B4 | below the threshold |
